According to publication PMC4222845:

How the values were obtained:
[1] = target: CopNΔ84 (C. pneumoniae AR39); assay: SEC; Superdex 200 10/300 GL, 10 mM Tris-HCl pH 7.5, 150 mM NaCl, 0.5 mL/min, 4°C; equivalent molar concentrations, incubated 15 minutes; molecular weight from BioRad gel-filtration standards
[2] = target: Scc3 (C. pneumoniae AR39); assay: ITC
[3] = target: Scc3-CopNΔ84 complex (C. pneumoniae AR39); assay: ITC

Substance | stoichiometry N [1] | Kd [2] | Kd [3]
Scc3 (natural protein) | 1 | – | –
synthetic peptide (CopB residues 163–173) | – | 79 µM | 49 µM
